This is an account of results in patent publication US10919953 (dated 2021).

Read-outs that look alike come from different tables or passages of the source.

Common to all, as to experiment: SPR
Background: SPR reads the build-up and loss of mass on a sensor chip optically.

In assay [1] the target is T1, FcgRIIb (human, UniProt P31994).
T1 chain: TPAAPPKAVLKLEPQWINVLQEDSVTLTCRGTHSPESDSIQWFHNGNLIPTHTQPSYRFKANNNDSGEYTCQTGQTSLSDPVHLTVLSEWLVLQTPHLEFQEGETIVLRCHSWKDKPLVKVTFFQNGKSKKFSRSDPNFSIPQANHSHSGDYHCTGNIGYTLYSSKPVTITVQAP

Assay [2] has as its target T2, FcgRIa (human, UniProt P12314).
T2 chain: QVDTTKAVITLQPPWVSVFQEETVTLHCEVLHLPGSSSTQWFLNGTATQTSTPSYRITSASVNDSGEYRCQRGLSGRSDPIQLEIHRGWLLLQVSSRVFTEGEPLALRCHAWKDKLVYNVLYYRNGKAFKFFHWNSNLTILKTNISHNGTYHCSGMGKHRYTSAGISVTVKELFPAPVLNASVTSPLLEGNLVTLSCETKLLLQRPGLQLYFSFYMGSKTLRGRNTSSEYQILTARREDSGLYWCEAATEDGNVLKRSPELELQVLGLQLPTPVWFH

The target in assay [3] is T3, FcgRIIaR (human, UniProt P12318).
T3 chain: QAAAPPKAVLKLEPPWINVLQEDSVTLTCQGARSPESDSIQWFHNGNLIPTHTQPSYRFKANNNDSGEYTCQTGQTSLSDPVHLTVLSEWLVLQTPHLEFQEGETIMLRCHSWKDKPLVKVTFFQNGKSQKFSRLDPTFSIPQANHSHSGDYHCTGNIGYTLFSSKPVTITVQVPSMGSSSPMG

Assay [4] deals with T3, FcgRIIaR.
For assay [5], the target named is T4, FcgRIIIaV (human, UniProt P08637).
For assay [6], the target named is T2, FcgRIa.
For assay [7], the target named is T2, FcgRIa.
For assay [8], the target named is T4, FcgRIIIaV. The source holds these as a separate data set.
The target of another assay is T5, FcgRIIaH (human, UniProt P12318).
T5 chain: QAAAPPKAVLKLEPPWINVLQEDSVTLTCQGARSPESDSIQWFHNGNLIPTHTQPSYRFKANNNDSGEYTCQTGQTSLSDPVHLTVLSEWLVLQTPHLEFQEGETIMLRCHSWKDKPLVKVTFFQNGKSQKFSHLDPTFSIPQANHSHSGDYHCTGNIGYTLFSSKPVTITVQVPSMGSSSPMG

In assay [9] the target is T1, FcgRIIb.
Assay [10] concerns the target T3, FcgRIIaR.
Assay [11] concerns the target T1, FcgRIIb.
Assay [12] addresses T3, FcgRIIaR.
In assay [13] the target is T2, FcgRIa.
Assay [14] concerns the target T1, FcgRIIb.

T4 sequence (P08637 17-208 F176V): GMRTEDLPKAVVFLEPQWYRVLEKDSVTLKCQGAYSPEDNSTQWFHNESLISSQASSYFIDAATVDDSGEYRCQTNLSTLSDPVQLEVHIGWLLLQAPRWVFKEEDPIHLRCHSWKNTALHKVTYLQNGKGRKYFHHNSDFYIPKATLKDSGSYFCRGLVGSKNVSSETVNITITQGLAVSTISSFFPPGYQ

B1: IL6R-BP471/IL6R-L (antibody)
chain 1: QVQLQESGPGLVKPSETLSLTCAVSGHSISHDHAWSWVRQPPGEGLEWIGFISYSGITNYNPSLQGRVTISRDNSKNTLYLQMNSLRAEDTAVYYCARSLARTTAMDYWGEGTLVTVSSASTKGPSVFPLAPSSKSTSGGTAALGCLVKDYFPEPVTVSWNSGALTSGVHTFPAVLQSSGLYSLSSVVTVPSSSLGTQTYICNVNHKPSNTKVDKKVEPKSCDKTHTCPPCPAPDLLGDDSVFLFPPKPKDTLMISRTPEVTCVVVDVSDEDGEVKFNWYVDGVEVHNAKTKPREEQDNSTYRVVSVLTVLHQDWLNGKEYKCKVSNKALSRPIEKTISKAKGQPREPQVYTLPPSRDELTKNQVSLTCLVKGFYPSDIAVEWESNGQPENNYKTTPPVLDSDGSFFLYSKLTVDKSRWQQGNVFSCSVMHEALHNHYTQESLSLSP
chain 2: not shown
The term Kd denotes a measure of binding affinity in units of concentration. High values mean lower affinity, low ones higher affinity. As to B1, the Kd in the assay with FcgRIIb [1] amounted to 35 nM; with FcgRIa [2] it was 7.3 nM; with FcgRIIaR [3] it was 800 nM.

B2: IL6R-BP223/IL6R-L (antibody)
chain 1: QVQLQESGPGLVKPSETLSLTCAVSGHSISHDHAWSWVRQPPGEGLEWIGFISYSGITNYNPSLQGRVTISRDNSKNTLYLQMNSLRAEDTAVYYCARSLARTTAMDYWGEGTLVTVSSASTKGPSVFPLAPSSKSTSGGTAALGCLVKDYFPEPVTVSWNSGALTSGVHTFPAVLQSSGLYSLSSVVTVPSSSLGTQTYICNVNHKPSNTKVDKKVEPKSCDKTHTCPPCPAPEYLGDDSVFLFPPKPKDTLMISRTPEVTCVVVDVSDEDGEVKFNWYVDGVEVHNAKTKPREEQYNSTYRVVSVLTVLHQDWLNGKEYKCKVSNAALPRPIEKTISKAKGQPREPQVYTLPPSRDELTKNQVSLTCLVKGFYPSDIAVEWESNGQPENNYKTTPPVLDSDGSFFLYSKLTVDKSRWQQGNVFSCSVMHEALHNHYTQESLSLSP
chain 2: not shown
B2: the affinity with FcgRIIaR [4], expressed as Kd, was 600 nM.

B3: IL6R-BP253/IL6R-L (antibody)
chain 1: QVQLQESGPGLVKPSETLSLTCAVSGHSISHDHAWSWVRQPPGEGLEWIGFISYSGITNYNPSLQGRVTISRDNSKNTLYLQMNSLRAEDTAVYYCARSLARTTAMDYWGEGTLVTVSSASTKGPSVFPLAPSSKSTSGGTAALGCLVKDYFPEPVTVSWNSGALTSGVHTFPAVLQSSGLYSLSSVVTVPSSSLGTQTYICNVNHKPSNTKVDKKVEPKSCDKTHTCPPCPAPELLGGPSVFLFPPKPKDTLMISRTPEVTCVVVDVEHEDPEVKFNWYVDGVEVHNAKTKPREEQYNSTYRVVSVLTVLHQDWLNGKEYKCKVSNKAFPAPIEKTISKAKGQPREPQVYTLPPSRDELTKNQVSLTCLVKGFYPSDIAVEWESNGQPENNYKTTPPVLDSDGSFFLYSKLTVDKSRWQQGNVFSCSVMHEALHNHYTQESLSLSP
chain 2: not shown
With B3, the Kd amounted to 400 nM in the assay with FcgRIIIaV [5]; 0.05 nM with FcgRIa [6]; 0.067 nM with FcgRIa [7]; 3600 nM in the assay with FcgRIIIaV [8]; 860 nM with FcgRIIaH; 11 nM with FcgRIIb [9]. The Kd with FcgRIIaR [10] was 2.3 nM; with FcgRIIb [11], 8.9 nM.

B4: IL6R-BP230/IL6R-L (antibody)
chain 1: QVQLQESGPGLVKPSETLSLTCAVSGHSISHDHAWSWVRQPPGEGLEWIGFISYSGITNYNPSLQGRVTISRDNSKNTLYLQMNSLRAEDTAVYYCARSLARTTAMDYWGEGTLVTVSSASTKGPSVFPLAPSSKSTSGGTAALGCLVKDYFPEPVTVSWNSGALTSGVHTFPAVLQSSGLYSLSSVVTVPSSSLGTQTYICNVNHKPSNTKVDKKVEPKSCDKTHTCPPCPAPDLLGDDSVFLFPPKPKDTLMISRTPEVTCVVVDVSDEDGEVKFNWYVDGVEVHNAKTKPREEQDNSTYRVVSVLTVLHQDWLNGKEYKCKVSNKALPRPIEKTISKAKGQPREPQVYTLPPSRDELTKNQVSLTCLVKGFYPSDIAVEWESNGQPENNYKTTPPVLDSDGSFFLYSKLTVDKSRWQQGNVFSCSVMHEALHNHYTQESLSLSP
chain 2: not shown
Turning to B4, the equilibrium dissociation constant (Kd) in the assay with FcgRIIaR [12] is 490 nM; with FcgRIa [13], 10 nM; in the assay with FcgRIIb [14], 18 nM.

B5: IL6R-BP478/IL6R-L (antibody)
chain 1: QVQLQESGPGLVKPSETLSLTCAVSGHSISHDHAWSWVRQPPGEGLEWIGFISYSGITNYNPSLQGRVTISRDNSKNTLYLQMNSLRAEDTAVYYCARSLARTTAMDYWGEGTLVTVSSASTKGPSVFPLAPCSRSTSESTAALGCLVKDYFPEPVTVSWNSGALTSGVHTFPAVLQSSGLYSLSSVVTVPSSSLGTKTYTCNVDHKPSNTKVDKRVESKYGPPCPPCPAPDLLGDDSVFLFPPKPKDTLMISRTPEVTCVVVDVSDEDGEVKFNWYVDGVEVHNAKTKPREEQDNSTYRVVSVLTVLHQDWLNGKEYKCKVSNKALPRPIEKTISKAKGQPREPQVYTLPPSRDELTKNQVSLTCLVKGFYPSDIAVEWESNGQPENNYKTTPPVLDSDGSFFLYSKLTVDKSRWQQGNVFSCSVMHEALHNHYTQESLSLSP
chain 2: not shown
As for B5, the values for the Kd with FcgRIIb [1], with FcgRIa [2] and with FcgRIIaR [3] were 19 nM, 7.7 nM and 540 nM, respectively.
